In assay [1] the target is T1, BoNT/B1 (Clostridium botulinum, UniProt P10844 2-1291).
T1 sequence: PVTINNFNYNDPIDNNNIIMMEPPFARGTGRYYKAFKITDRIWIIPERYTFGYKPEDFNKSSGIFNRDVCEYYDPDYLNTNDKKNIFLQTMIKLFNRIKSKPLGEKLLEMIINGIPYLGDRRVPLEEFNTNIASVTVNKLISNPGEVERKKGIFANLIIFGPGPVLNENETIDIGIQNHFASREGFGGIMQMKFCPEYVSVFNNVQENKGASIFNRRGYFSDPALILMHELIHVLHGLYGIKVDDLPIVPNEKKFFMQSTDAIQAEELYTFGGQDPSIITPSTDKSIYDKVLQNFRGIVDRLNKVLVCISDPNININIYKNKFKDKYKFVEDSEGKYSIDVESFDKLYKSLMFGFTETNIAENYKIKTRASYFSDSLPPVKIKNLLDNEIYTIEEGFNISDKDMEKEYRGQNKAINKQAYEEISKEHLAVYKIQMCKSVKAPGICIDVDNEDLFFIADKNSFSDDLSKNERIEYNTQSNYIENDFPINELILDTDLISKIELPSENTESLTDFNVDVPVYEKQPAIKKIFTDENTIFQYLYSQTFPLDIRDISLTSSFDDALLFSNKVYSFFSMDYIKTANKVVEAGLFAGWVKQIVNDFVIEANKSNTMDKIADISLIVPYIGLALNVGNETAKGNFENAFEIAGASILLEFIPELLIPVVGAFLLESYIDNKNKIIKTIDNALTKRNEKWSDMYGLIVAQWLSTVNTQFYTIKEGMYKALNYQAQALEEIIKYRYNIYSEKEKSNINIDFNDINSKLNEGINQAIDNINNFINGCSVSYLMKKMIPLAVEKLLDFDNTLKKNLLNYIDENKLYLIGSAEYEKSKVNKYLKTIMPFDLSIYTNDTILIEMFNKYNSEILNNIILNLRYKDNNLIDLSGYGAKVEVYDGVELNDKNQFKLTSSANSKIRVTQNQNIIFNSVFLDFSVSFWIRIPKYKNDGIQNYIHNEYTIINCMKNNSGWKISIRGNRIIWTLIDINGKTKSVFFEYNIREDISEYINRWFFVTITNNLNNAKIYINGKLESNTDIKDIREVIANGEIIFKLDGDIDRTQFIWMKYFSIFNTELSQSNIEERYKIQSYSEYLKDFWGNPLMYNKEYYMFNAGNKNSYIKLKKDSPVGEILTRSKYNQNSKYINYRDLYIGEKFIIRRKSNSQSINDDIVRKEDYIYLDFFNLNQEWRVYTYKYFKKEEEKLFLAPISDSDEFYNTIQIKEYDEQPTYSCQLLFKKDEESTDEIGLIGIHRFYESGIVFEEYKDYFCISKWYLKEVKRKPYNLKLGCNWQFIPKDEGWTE
Put plainly: flow cytometry, yeast-displayed scFv, soluble toxin.

Assay [2] has as its target T1, BoNT/B1. Described as above. This is another data set of the same source.
The target of assay [3] is T1, BoNT/B1. Nature of the assay: KinExA flow fluorimetry, IgG in solution.
Assay [4] deals with T1, BoNT/B1. Put plainly: yeast-displayed Fab against parental B6 scFv, flow cytometry.
The target in assay [5] is T1, BoNT/B1. Nature of the assay: flow cytometry, yeast-displayed Fab, soluble toxin.
For assay [6], the target named is T1, BoNT/B1. Nature of the assay: flow cytometry, yeast-displayed scFv, soluble toxin. This is another data set of the same source.
Assay [7] concerns the target T1, BoNT/B1.

B1: 4B7 scFv (scFv)
scFv: QVQLQQSGPGLVKPSQTLSLTCSVSGGSINSDGSYWSWVRQHPGKGLEWIGYIYYSGTTYFNPSLKSRLTMSVDTSKNQFSLKMTSVTAADTAVYYCARMSGSRSYSQYYFDSWGQGTLVTVSSGGGGSGGGGSGGGGSDIQMTQSPSSLSASVGDRVTITCRASQSISSYLNWYQQKPGTAPKLLISDASTLQSGVPSRFSGSGSGTEFTLTISNLQPEDFATYYCQQFNSYVWTFGQGTKLEIK
Turning to B1, in assay [1], the Kd was 29.4 nM.

B2: 1B18 scFv (scFv, V domains shown)
VH: EVQLVQSGGGLVQPGGSRRLSCAASGFYFNAYWMTWVRQAPGKGLEWVANINLDGTEIYYLDSVKGRFTVSRDNVKNSVFLQMSSLRVEDTAVYFCARLEWGGRNGWVSPWGQGTLVTVSS
VL: DVVMTQSPSSVSASVGDRVTITCRASQSISSYLNWYQQRPGKAPKLLIFAASSLQSAVPSRFSGSGSGTDFTLTISSLQPEDFATYYCQQSYSTPPTFGQGTKVEIKR
In the case of B2, the Kd in assay [2] and in assay [1] was 7.3 nM in each case.

B3: 1B18 IgG (antibody, V domains shown)
VH: EVQLVQSGGGLVQPGGSRRLSCAASGFYFNAYWMTWVRQAPGKGLEWVANINLDGTEIYYLDSVKGRFTVSRDNVKNSVFLQMSSLRVEDTAVYFCARLEWGGRNGWVSPWGQGTLVTVSS
VL: DVVMTQSPSSVSASVGDRVTITCRASQSISSYLNWYQQRPGKAPKLLIFAASSLQSAVPSRFSGSGSGTDFTLTISSLQPEDFATYYCQQSYSTPPTFGQGTKVEIKR
As to B3, the affinity in assay [3], expressed as Kd, was 0.816 nM.

B4: 2B30 scFv (scFv)
scFv: EVQLVESGGGVVQPGRSLRLSCAASGFTFRRNAIHWVRQAPGKGLEWVAVISYDGVNKYYAASVKGRFAISRDNAKNTLFLQMNSLRPEDSAIYYCARDVSEYGDYVGHFDYWGQGTLVTVSSGGGGSGGGGSGGGGSSYELMQLPSASGTPGQRVSISCSGSSSNIGSNPVNWYQQLPGTAPKLLIYSNNHRPSGVPDRFSGSKSGTSASLAISGLQSEDEADYYCAAWDGSLNGHVVFGGGTKLTVL
Molecule B4 came in with a Kd in assay [1] of 0.37 nM.

B5: 2B23 IgG (antibody, V domains shown)
VH: EVQLLESGGGLVQPGGSLRLSCAASGFTFSNYPMSWVRQAPGKGLAWVSSLTASGDNTFYADSVKGRFTISRDNSNNTLYLQMHSLRAEDTAVYYCAKALVGRYDISTGYYRPVMDSWGQGTLVTVSS
VL: DIQMTQSPPSLSASVGDRVTITCRTSQGFTSALAWYQQKPGEPPKLLIYDASKLESGVPSRFSGSGSGTNFALTISSLQPEDFATYFCQQSNSYPLTFGGGTKVEIKR
In the case of B5, in assay [3], binding was characterised by a dissociation constant (Kd) of 0.0382 nM.

B6: 2B25 scFv (scFv)
scFv: QVQLQESGPGLVKPSQTLSLSCSVSGASITSGTFYWSWIRQHPGKDLEWIGYIYYSGTTYYNPSLKSRVTLSVDTSKNQFSLKVTSLTAADTAVYHCARGVPIYDSSGTYRGTYFDYWGQGTLVTVSSGGGGSGGGGSGGGGSQPGLTQPPSASGTPGQRVTISCSGSSSNVGSNTVNWYQQLPGTAPKLLIYRNDQRPSGVPDRFSGSKSGASASLAISGLRSEDEADYYCAAWDDSLNGLLFGGGTQLTVL
For B6, binding in assay [1] was put at a Kd of 0.95 nM.

B7: 4B6 scFv (scFv)
scFv: QVQLVQSGAEVKKPGESLVISCKASGDKDTFTSFWIAWVRQMPGKGLEWMGIIYAGDSDTRYSPSFQGHVNISVDRSTNTAYLQWSSLKASDTAMYYCARHDSRYKYFYFGMDVWGQGTTVTVSSGGGGSGGGGSGGGGSDVVMTQSPSSLSASVGDRITITCQAGQDISNFLNWYQQKPGKAPKLLIRDASNLETGVPSRFSGGGSGTHFTFTISSLHPEDIATYFCQQYDNLPYTFGQGTKLEIK
The molecule B7 displayed a Kd in assay [1] of 2.7 nM. Against the preceding molecule, the Kd is about 2.8-fold higher.

B8: 2B24 scFv (scFv)
scFv: QVQLVESGGGVVQPGRSLRLSCAASGLTFSVYGMHWVRQAPGKGLEWVAVISHTGSEEYYADSVKGRFSISRDNSNNTLFLQMNSLRPEDTAVYYCVKDGPMAAIPFYYFDFWGQGTLVTVSSGGGGSGGGGSGGGGSQSVVTQPPSVSAAPGQKVTISCSGSSSNIGNNYVSWYQQLPGTAPKLLIYDNNKRPSGIPDRFSGSKSGTSATLGITGLQTGDEADYYCGTWDSSLSAGVFGGGTKLTVL
As to B8, the affinity in assay [1], expressed as Kd, was 0.79 nM.

B9: B6.C12 Fab (Fab, V domains shown)
VH: QVQLVQSGAEVKKPGESLVISCKASGDKDTFTSFWIAWVRQMPGKGLEWMGIIYAGDSDTRYSPSFQGHVNISVDRSTNTAYLQWSSLKASDTAMYYCARHDSRYKYFYFGMDVWGQGTTVTVSS
VL: DIVMTQSPSSLSASVGDRVTITCRASQSISSYLNWYQQKPGKAPKLLIYAASSLQSGVPSRFSGSGSGTDFTLTISSLQPEAFATYYCQQSYTAPCTFGQGTKLEIK
On to B9, for which the “KD wild type/KD matured” value in assay [4] stood at 7 fold. The Kd in assay [5] stood at 0.405 nM.

B10: B6.D2 Fab (Fab, V domains shown)
VH: QVQLVQSGAEVKKPGESLVISCKASGDKDTFTSFWIAWVRQMPGKGLEWMGIIYAGDSDTRYSPSFQGHVNISVDRSTNTAYLQWSSLKASDTAMYYCARHDSRYKYFYFGMDVWGQGTTVTVSS
VL: DVVMTQSPCLPCLHLIGDRVTITCRASQSIRDYLSWYQQEPGKAPKLLIYSASSLQSGVPSRFSGSGSGTDFTLTITNLQPEDFATYYCLEKYSFPRCTFGQGTKLDIKR
Consider B10, for which the “KD wild type/KD matured” value in assay [4] turned out to be 11 fold. For the same molecule, the affinity in assay [5], expressed as Kd, was 0.254 nM.

B11: 1B22 scFv (scFv)
scFv: QVQLQESGSRLVKPSQTLSLTCGVSGGSISSSSYSWSWIRQTPGKGLEWIGYIYHSGSTYYNPSLKSRVTMSVDKSRNQFSLNMSSVTAADTAVYYCARTAFYYENTGPIRCYLDFWGQGTLVTVSSGGGGSGGGGSGGGGSDIQMTQSPSTLSASIGDRVTISCRASQSIQSWLAWYQQRPGEAPKLLIYSASTLQTGVPSRFSGSGSGTDFTLTISSLQPEDFATYYCQQYNSYPLTFGQGTKLEIK
Regarding B11, the Kd in assay [2] amounted to 0.515 nM; in assay [1], 0.52 nM.

B12: B11E8 scFv (scFv)
scFv: EVQLVQSGGGVVQPGRSLRLSCAASGFIFRTYGMHWVRQAPGKGLEWVAFVSSDGNNKFYSDSVKGRFTISRDNAKNTLYLQMNSLETEDTAMYYCAKDRYPIDCSGGSCFSYGMDVWGQGTTVTVSSGGGGSGGGGSGGGGSEIVLTQSPATLSVSPGERATLSCRASQSVSKFLAWYQQKRGQAPRLLIYGASTRATGIPARFSGSGSGTEFALTISSLQSEDFADYYCQQYDNWPITFGQGTRLEIK
Turning to B12, the Kd in assay [6] stood at 0.193 nM.

B13: 1B22 IgG (antibody, V domains shown)
VH: QVQLQESGSRLVKPSQTLSLTCGVSGGSISSSSYSWSWIRQTPGKGLEWIGYIYHSGSTYYNPSLKSRVTMSVDKSRNQFSLNMSSVTAADTAVYYCARTAFYYENTGPIRCYLDFWGQGTLVTVSS
VL: DIQMTQSPSTLSASIGDRVTISCRASQSIQSWLAWYQQRPGEAPKLLIYSASTLQTGVPSRFSGSGSGTDFTLTISSLQPEDFATYYCQQYNSYPLTFGQGTKLEIK
In assay [3], B13 registered a Kd of 0.335 nM. For the same molecule, the “fold increase in affinity, IgG against parental scFv” value in assay [7] lay within 1.5 to 25 fold.

B14: 1B10 scFv (scFv)
scFv: QVQLVESGGGVVQPGRSLRLSCAASGFTFSHYGMHWVRQSPGKGLEWVAVIWYDGRNPYYAASVKGRFTISRDNDKNTLYLQMNSLRAEDTAVYYCVKDLTRFHDTTFGVFEMWGPGTTVTVSSGGGGSGGGGSGGGGSEIVLTQSPSSLSASVGDRITITCRASQSISSWLAWYQQKPGKAPMVLIYKASSLENGVPSRFSGSGSGTEFTLTISSLQPDDFATYYCQQYSTYSRTFGQGTKVEIK
For B14, binding in assay [1] was characterised by a dissociation constant (Kd) of 11.2 nM.

B15: 2B23 scFv (scFv)
scFv: EVQLLESGGGLVQPGGSLRLSCAASGFTFSNYPMSWVRQAPGKGLAWVSSLTASGDNTFYADSVKGRFTISRDNSNNTLYLQMHSLRAEDTAVYYCAKALVGRYDISTGYYRPVMDSWGQGTLVTVSSGGGGSGGGGSGGGGSDIQMTQSPPSLSASVGDRVTITCRTSQGFTSALAWYQQKPGEPPKLLIYDASKLESGVPSRFSGSGSGTNFALTISSLQPEDFATYFCQQSNSYPLTFGGGTKVEIK
For B15, the Kd in assay [2] was found to be 0.079 nM; in assay [1] it was 0.08 nM.

(Values after US20150197559A1 (University of California, published 2015).)
